This note sets out measurements from publication doi:10.1101/466946 (bioRxiv, 2018).

The target of this experiment is recombinant full-length CIN85 (human, UniProt Q96B97 1-665). Nature of the experiment: SPR.
Sequence of recombinant full-length CIN85 (Q96B97 whole entry): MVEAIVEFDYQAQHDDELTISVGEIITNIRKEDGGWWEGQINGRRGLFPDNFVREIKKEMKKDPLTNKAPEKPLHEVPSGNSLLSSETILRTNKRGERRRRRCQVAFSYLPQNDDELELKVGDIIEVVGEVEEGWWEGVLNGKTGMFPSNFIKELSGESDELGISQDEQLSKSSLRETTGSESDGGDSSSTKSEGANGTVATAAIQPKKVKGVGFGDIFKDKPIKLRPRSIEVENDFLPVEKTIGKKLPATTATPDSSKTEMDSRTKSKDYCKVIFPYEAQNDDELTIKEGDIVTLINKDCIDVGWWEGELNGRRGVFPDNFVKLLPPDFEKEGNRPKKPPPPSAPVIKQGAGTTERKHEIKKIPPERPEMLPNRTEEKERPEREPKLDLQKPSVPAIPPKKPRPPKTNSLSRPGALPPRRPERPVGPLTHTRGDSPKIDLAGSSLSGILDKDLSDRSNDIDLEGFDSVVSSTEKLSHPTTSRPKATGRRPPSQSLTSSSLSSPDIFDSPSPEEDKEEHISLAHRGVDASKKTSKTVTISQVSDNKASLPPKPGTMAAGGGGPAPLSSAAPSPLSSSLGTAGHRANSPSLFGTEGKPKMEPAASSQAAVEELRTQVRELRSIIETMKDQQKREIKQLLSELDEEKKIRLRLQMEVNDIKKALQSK

B1: recombinant PHD2 (enzyme, human, UniProt Q9GZT9 1-426, looked up)
chain: MANDSGGPGGPSPSERDRQYCELCGKMENLLRCSRCRSSFYCCKEHQRQDWKKHKLVCQGSEGALGHGVGPHQHSGPAPPAAVPPPRAGAREPRKAAARRDNASGDAAKGKVKAKPPADPAAAASPCRAAAGGQGSAVAAEAEPGKEEPPARSSLFQEKANLYPPSNTPGDALSPGGGLRPNGQTKPLPALKLALEYIVPCMNKHGICVVDDFLGKETGQQIGDEVRALHDTGKFTDGQLVSQKSDSSKDIRGDKITWIEGKEPGCETIGLLMSSMDDLIRHCNGKLGSYKINGRTKAMVACYPGNGTGYVRHVDNPNGDGRCVTCIYYLNKDWDAKVSGGILRIFPEGKAQFADIEPKFDRLLFFWSDRRNPHEVQPAYATRYAITVWYFDADERARAKVKYLTGEKGVRVELNKPSDSVGKDVF
Broadly, the Kd is the constant that tells how readily two partners part at equilibrium. As for B1, the dissociation constant (Kd) was found to be 28.5 nM.
